The source of these data is the supplement of paper PMC5998384.

The subject of data set [1] is HeLa Kyoto. The experiment in a line: melting temperature (median over replicates), in situ; higher = more thermally stable.
In data set [2] the test system is HeLa Kyoto. Nature of the data set: solubility in G1/S (NP-40 vs SDS abundance) (log2 ratio); higher = more soluble. To be noted: cell cycle stage: G1/S.
Data set [3] has as its system HeLa Kyoto. The experiment in a line: solubility change mitosis vs G1/S (difference of NP-40 vs SDS log2 ratios) (log2 ratio difference); higher = more soluble in mitosis.
In data set [4] the test system is HeLa Kyoto. The experiment in a line: thermal stability score vs G1/S (z-score of summed log2 fold changes over temperatures); higher = more thermally stable than in G1/S.
The mark [5] stands for this setting: cell cycle stage: early G1 (4.5 h after nocodazole release).
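Throughout, for melting temperature (median over replicates), in situ: HeLa Kyoto cells synchronized by double thymidine or nocodazole block, proteins quantified by TMT10plex mass spectrometry, three independent biological replicates.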
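Throughout, for solubility change mitosis vs G1/S (difference of NP-40 vs SDS log2 ratios): synchronized HeLa Kyoto cells (double thymidine block for G1/S, nocodazole release for mitosis), protein amounts in NP-40 versus SDS lysates quantified by mass spectrometry, three biological replicates.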
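Throughout, for solubility in G1/S (NP-40 vs SDS abundance): HeLa Kyoto cells arrested at G1/S by double thymidine block, proteins quantified by TMT10plex mass spectrometry in mild NP-40 versus SDS extracts, three biological replicates.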
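Throughout, for thermal stability score vs G1/S (z-score of summed log2 fold changes over temperatures): synchronized HeLa Kyoto cells, proteins quantified by TMT10plex mass spectrometry, three biological replicates, mitosis taken 0.5 h after nocodazole release, G1/S directly after double thymidine block.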

With “MSKSESPKEPEQLRKLFIGGLSFETTDESLRSHFEQWGTLTDCVVMRDPNTKRSRGFGFVTYATVEEVDAAMNARPHKVDGRVVEPKRAVSREDSQRPGAHLTVKKIFVGGIKEDTEEHHLRDYFEQYGKIEVIEIMTDRGSGKKRGFAFVTFDDHDSVDKIVIQKYHTVNGHNCEVRKALSKQEMASASSSQRGRSGSGNFGGGRGGGFGGNDNFGRGGNFSGRGGFGGSRGGGGYGGSGDGYNGFGNDGGYGGGGPGYSGGSRGYGSGGQGYGNQGSGYGGSGSYDSYNNGGGGGFGGGSGSNFGGGGSYNDFGNYNNQSSNFGPMKGGNFGGRSSGPYGGGGQYFAKPRNQGGYGGSSSSSSYGSGRRF [HNRNPA1]”, the melting temperature was determined as 49.4 °C in the data set with HeLa Kyoto [1] (cell cycle stage: G1/S) and 50.1 °C with HeLa Kyoto [1] (cell cycle stage: mitosis). The “solubility in G1/S (log2)” value in the data set with HeLa Kyoto [2] was -0.184. The “solubility change mitosis (log2)” value in the data set on HeLa Kyoto [3] is 0.275. Moreover, the thermal stability score is -0.92 with HeLa Kyoto [4] (setting [5]) and 1.18 with HeLa Kyoto [4] (cell cycle stage: mitosis).
For “MSKSKDDAPHELESQFILRLPPEYASTVRRAVQSGHVNLKDRLTIELHPDGRHGIVRVDRVPLASKLVDLPCVMESLKTIDKKTFYKTADICQMLVSTVDGDLYPPVEEPVASTDPKASKKKDKDKEKKFIWNHGITLPLKNVRKRRFRKTAKKKYIESPDVEKEVKRLLSTDAEAVSTRWEIIAEDETKEAENQGLDISSPGMSGHRQGHDSLEHDELREIFNDLSSSSEDEDETQHQDEEDINIIDTEEDLERQLQDKLNESDEQHQENEGTNQLVMGIQKQIDNMKGKLQETQDRAKRQEDLIMKVENLALKNRFQAVLDELKQKEDREKEQLSSLQEELESLLEK [TAF7]”, the melting temperature came to 52 °C in the data set on HeLa Kyoto [1] (cell cycle stage: G1/S) and 51.6 °C with HeLa Kyoto [1] (cell cycle stage: mitosis). The “solubility in G1/S (log2)” value with HeLa Kyoto [2] worked out at 0.55. Also, the “solubility change mitosis (log2)” value in the data set with HeLa Kyoto [3] came out at 0.081. The thermal stability score in the data set with HeLa Kyoto [4] (setting [5]) was determined as 1.09; in the data set on HeLa Kyoto [4] (cell cycle stage: mitosis) it was 3.64.
“MSLADELLADLEEAAEEEEGGSYGEEEEEPAIEDVQEETQLDLSGDSVKTIAKLWDSKMFAEIMMKIEEYISKQAKASEVMGPVEAAPEYRVIVDANNLTVEIENELNIIHKFIRDKYSKRFPELESLVPNALDYIRTVKELGNSLDKCKNNENLQQILTNATIMVVSVTASTTQGQQLSEEELERLEEACDMALELNASKHRIYEYVESRMSFIAPNLSIIIGASTAAKIMGVAGGLTNLSKMPACNIMLLGAQRKTLSGFSSTSVLPHTGYIYHSDIVQSLPPDLRRKAARLVAAKCTLAARVDSFHESTEGKVGYELKDEIERKFDKWQEPPPVKQVKPLPAPLDGQRKKRGGRRYRKMKERLGLTEIRKQANRMSFGEIEEDAYQEDLGFSLGHLGKSGSGRVRQTQVNEATKARISKTLQRTLQKQSVVYGGKSTIRDRSSGTASSVAFTPLQGLEIVNPQAAEKKVAEANQKYFSSMAEFLKVKGEKSGLMST [PRPF31]”: the melting temperature in the data set on HeLa Kyoto [1] (cell cycle stage: G1/S) was found to be 46.8 °C; in the data set with HeLa Kyoto [1] (cell cycle stage: mitosis), 48.3 °C. In the data set with HeLa Kyoto [2], the “solubility in G1/S (log2)” value is -0.0726. Besides, the “solubility change mitosis (log2)” value in the data set with HeLa Kyoto [3] stood at 0.246. The thermal stability score came to 2.25 with HeLa Kyoto [4] (setting [5]) and 7.81 in the data set with HeLa Kyoto [4] (cell cycle stage: mitosis).
As for “MSLLLYYALPALGSYAMLSIFFLRRPHLLHTPRAPTFRIRLGAHRGGSGELLENTMEAMENSMAQRSDLLELDCQLTRDRVVVVSHDENLCRQSGLNRDVGSLDFEDLPLYKEKLEVYFSPGHFAHGSDRRMVRLEDLFQRFPRTPMSVEIKGKNEELIREIAGLVRRYDRNEITIWASEKSSVMKKCKAANPEMPLSFTISRGFWVLLSYYLGLLPFIPIPEKFFFCFLPNIINRTYFPFSCSCLNQLLAVVSKWLIMRKSLIRHLEERGVQVVFWCLNEESDFEAAFSVGATGVITDYPTALRHYLDNHGPAARTS [GDPD3]”, the melting temperature is 56.4 °C in the data set with HeLa Kyoto [1] (cell cycle stage: G1/S) and 55.1 °C in the data set with HeLa Kyoto [1] (cell cycle stage: mitosis). For the same sequence, the “solubility in G1/S (log2)” value in the data set with HeLa Kyoto [2] is -0.262. In addition, the “solubility change mitosis (log2)” value with HeLa Kyoto [3] is -0.0964. In addition, the results for the thermal stability score in the data set on HeLa Kyoto [4] (setting [5]) and in the data set on HeLa Kyoto [4] (cell cycle stage: mitosis) were -0.274 and 0.35, respectively.
Consider “MSLLMISENVKLAREYALLGNYDSAMVYYQGVLDQMNKYLYSVKDTYLQQKWQQVWQEINVEAKHVKDIMKTLESFKLDSTPLKAAQHDLPASEGEVWSMPVPVERRPSPGPRKRQSSQYSDPKSHGNRPSTTVRVHRSSAQNVHNDRGKAVRCREKKEQNKGREEKNKSPAAVTEPETNKFDSTGYDKDLVEALERDIISQNPNVRWDDIADLVEAKKLLKEAVVLPMWMPEFFKGIRRPWKGVLMVGPPGTGKTLLAKAVATECKTTFFNVSSSTLTSKYRGESEKLVRLLFEMARFYSPATIFIDEIDSICSRRGTSEEHEASRRVKAELLVQMDGVGGTSENDDPSKMVMVLAATNFPWDIDEALRRRLEKRIYIPLPSAKGREELLRISLRELELADDVDLASIAENMEGYSGADITNVCRDASLMAMRRRIEGLTPEEIRNLSKEEMHMPTTMEDFEMALKKVSKSVSAADIERYEKWIFEFGSC [KATNA1]”, for which the melting temperature in the data set with HeLa Kyoto [1] (cell cycle stage: G1/S) came to 51.4 °C; with HeLa Kyoto [1] (cell cycle stage: mitosis), 49.9 °C. Further, the “solubility in G1/S (log2)” value with HeLa Kyoto [2] was determined as 0.0763. In addition, in the data set with HeLa Kyoto [3], the “solubility change mitosis (log2)” value was -0.000211. The thermal stability score was 0.0753 in the data set with HeLa Kyoto [4] (setting [5]) and 0.484 in the data set on HeLa Kyoto [4] (cell cycle stage: mitosis).
